The values that follow come from publication PMC4740771, “Nucleotide-dependent assembly of the peroxisomal receptor export complex” (Scientific Reports, 2016).

Data set [1] deals with the molecule itself. The data set can be described thus: SEC; as a1 but isolated and run in the presence of 5 mM ADP instead of ATP. (Size exclusion chromatography separates by hydrodynamic size, large species first.)
Data set [2] addresses T1, Pex1WB/6p complex (Pex1p E798Q with wild-type Pex6p) (S. cerevisiae, UniProt P24004 1-1043; P33760 1-1030, E798Q).
T1 construct: Pex1p of yeast with the Walker B mutation of the D2 domain; Pex6p of yeast, as the chain of m2; also called Pex1WB^E798Q/6p; not shown: His6, N-terminal, kept; GST, C-terminal, cleaved; copies: 3 + 3
The experiment in a line: pull-down; GST-Pex15p(1-315)His incubated with purified proteins, loaded on GSH-agarose, eluted with glutathione; 5 mM ATP; Coomassie and immunoblot, signal intensities of load and eluate. The settings on record: both partners purified. For orientation: In western blotting, separated proteins are transferred to a membrane and probed.

The next data set deals with T2, HisPex6p (S. cerevisiae, UniProt P33760 1-1030).
T2 construct: Pex6p, type II AAA-ATPase peroxin of yeast; also called single Pex6p; isolated Pex6p; source: E. coli Tuner (DE3), purified (NiNTA-agarose; with HisPex1pGST also GSH-agarose and size exclusion); not shown: His6, N-terminal, kept
T2 sequence (looked up): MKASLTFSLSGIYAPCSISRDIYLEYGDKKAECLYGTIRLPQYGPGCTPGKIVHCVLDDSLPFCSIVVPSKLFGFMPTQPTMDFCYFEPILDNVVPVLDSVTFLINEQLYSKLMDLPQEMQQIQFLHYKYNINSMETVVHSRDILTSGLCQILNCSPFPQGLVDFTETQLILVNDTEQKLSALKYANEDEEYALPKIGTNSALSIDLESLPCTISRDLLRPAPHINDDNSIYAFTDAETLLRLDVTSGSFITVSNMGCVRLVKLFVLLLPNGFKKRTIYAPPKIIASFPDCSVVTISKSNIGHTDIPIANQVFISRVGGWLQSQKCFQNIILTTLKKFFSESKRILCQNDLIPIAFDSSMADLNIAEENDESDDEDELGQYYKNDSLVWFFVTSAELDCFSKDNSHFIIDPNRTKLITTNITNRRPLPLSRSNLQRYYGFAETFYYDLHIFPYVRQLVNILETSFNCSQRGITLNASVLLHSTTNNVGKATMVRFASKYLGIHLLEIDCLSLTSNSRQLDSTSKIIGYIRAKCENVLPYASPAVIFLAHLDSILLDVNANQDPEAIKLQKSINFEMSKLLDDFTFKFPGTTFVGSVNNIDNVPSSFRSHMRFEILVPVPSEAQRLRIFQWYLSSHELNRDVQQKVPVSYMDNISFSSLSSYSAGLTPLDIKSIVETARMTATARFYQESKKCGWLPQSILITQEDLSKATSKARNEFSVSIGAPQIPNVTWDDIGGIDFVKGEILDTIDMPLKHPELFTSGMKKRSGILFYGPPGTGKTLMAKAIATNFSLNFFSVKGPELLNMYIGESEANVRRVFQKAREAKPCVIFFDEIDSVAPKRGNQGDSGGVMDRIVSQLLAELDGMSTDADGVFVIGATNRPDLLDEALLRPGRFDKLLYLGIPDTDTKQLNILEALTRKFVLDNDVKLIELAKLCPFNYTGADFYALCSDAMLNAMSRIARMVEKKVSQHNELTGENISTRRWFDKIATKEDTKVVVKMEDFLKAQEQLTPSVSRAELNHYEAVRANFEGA
Described as above. The note with it: both partners purified.

Data set [3] addresses T3, Pex1/6p-complex (recombinant heterohexameric AAA-complex) (S. cerevisiae, UniProt P24004 1-1043; P33760 1-1030).
T3 construct: Pex1p of yeast, as the chain of m3; Pex6p of yeast, as the chain of m2; Described as a trimer of Pex1/6p dimers (heterohexamer, about 700 kDa); Isolated in 5 mM ATP or 5 mM ADP as said for each assay; also called Pex1p/Pex6p-complex; wild-type Pex1/6p; source: E. coli Tuner (DE3), cells mixed and lysed, co-purified (NiNTA-agarose, GSH-agarose, thrombin release, size exclusion); not shown: His6, …
The description is as above. The note with it: both partners purified.

For data set [4], the target named is T4, Pex1/6pWB complex (wild-type Pex1p with Pex6p E832Q) (S. cerevisiae, UniProt P24004 1-1043; P33760 1-1030, E832Q).
T4 construct: Pex1p of yeast, as the chain of m3; Pex6p of yeast with the Walker B mutation of the D2 domain; also called Pex1p/Pex6pWB; Pex6WB mutant complex; not shown: His6, N-terminal, kept; GST, C-terminal, cleaved; copies: 3 + 3
Described as above. The settings on record: both partners purified.

B1: HisPex1p released from HisPex1pGST by thrombin (natural protein, S. cerevisiae, UniProt P24004 1-1043, looked up)
chain: MTTTKRLKFENLRIQFSNAIVGNFLRLPHSIINVLESTNYAIQEFGIAVHSHNSDIPIVHLGWDGHDSGSSENVVLINPVLATVYDLNQKSPLVDLYIQRYDHTHLATEVYVTPETSDDWEIIDANAMRFQNGEILHQTRIVTPGETLICYLEGIVTKFKIDRVEPSMKSARITDGSLVVVAPKVNKTRLVKAEYGHSNKTILKNGAIQLLKKVILRSTVCKMDFPKDNLFVVYISDGAQLPSQKGYASIVKCSLRQSKKSDSDNKSVGIPSKKIGVFIKCDSQIPENHIALSSHLWDAFFTHPMNGAKIKLEFLQMNQANIISGRNATVNIKYFGKDVPTKSGDQYSKLLGGSLLTNNLILPTEQIIIEIKKGESEQQLCNLNEISNESVQWKVTQMGKEEVKDIIERHLPKHYHVKETGEVSRTSKDEDDFITVNSIKKEMVNYLTSPIIATPAIILDGKQGIGKTRLLKELINEVEKDHHIFVKYADCETLHETSNLDKTQKLIMEWCSFCYWYGPSLIVLDNVEALFGKPQANDGDPSNNGQWDNASKLLNFFINQVTKIFNKDNKRIRVLFSGKQKTQINPLLFDKHFVSETWSLRAPDKHARAKLLEYFFSKNQIMKLNRDLQFSDLSLETEGFSPLDLEIFTEKIFYDLQLERDCDNVVTRELFSKSLSAFTPSALRGVKLTKETNIKWGDIGALANAKDVLLETLEWPTKYEPIFVNCPLRLRSGILLYGYPGCGKTLLASAVAQQCGLNFISVKGPEILNKFIGASEQNIRELFERAQSVKPCILFFDEFDSIAPKRGHDSTGVTDRVVNQLLTQMDGAEGLDGVYILAATSRPDLIDSALLRPGRLDKSVICNIPTESERLDILQAIVNSKDKDTGQKKFALEKNADLKLIAEKTAGFSGADLQGLCYNAYLKSVHRWLSAADQSEVVPGNDNIEYFSINEHGRREENRLRLKTLLQQDVVHETKTSTSAASELTAVVTINDLLEACQETKPSISTSELVKLRGIYDRFQKDRNGEMPNGENSIDIGSRLSLM
notes: Pex1p, type II AAA-ATPase peroxin of yeast; The GST tag held the complex on GSH-agarose during purification and stayed on the column after thrombin cleavage; source: E. coli Tuner (DE3), co-purified with HisPex6p (NiNTA-agarose, GSH-agarose, thrombin release); not shown: His6, N-terminal, kept; GST, C-terminal, cleaved
With B1, the “stoichiometry N” value in data set [1] amounted to 3.

B2: GST-Pex15p(1-315)His (domain or fragment, S. cerevisiae, UniProt Q08215 1-315, looked up)
chain: MAASEIMNNLPMHSLDSSLRDLLNDDLFIESDESTKSVNDQRSEVFQECVNLFIKRDIKDCLEKMSEVGFIDITVFKSNPMILDLFVSACDIMPSFTKLGLTLQSEILNIFTLDTPQCIETRKIILGDLSKLLVINKFFRCCIKVIQFNLTDHTEQEEKTLELESIMSDFIFVYITKMRTTIDVVGLQELIEIFIFQVKVKLHHKKPSPNMYWALCKTLPKLSPTLKGLYLSKDVSIEDAILNSIDNKIQKDKAKSKGKQRGVKQKIHHFHEPMLHNSSEEQVKVEDAFNQRTSTDSRLQSTGTAPRKKNNDITV
notes: Pex15p, tail-anchored peroxisomal membrane protein of S. cerevisiae (genomic DNA of strain UTL-7A), cytosolic part, residues 1 to 315; also called cytosolic domain of Pex15p; source: E. coli BL21 (DE3), purified (Glutathione Agarose 4B, dialysis); not shown: GST, N-terminal, kept; His6, C-terminal, kept
As for B2, the binding result (in data set [2]; with HisPex6p; in data set [3]; in data set [4]) was “binds” in each case.

By stoichiometry N is commonly meant a count of units in the complex or per binding partner.
